The source of these data is article PMC3866925, “Functional characterization of two members of histidine phosphatase superfamily in Mycobacterium tuberculosis” (BMC Microbiology, 2013).

One may read the stoichiometry N as the number of molecules, sites or subunits per partner or assembly.

The data set deals with the molecule itself. The experiment in a line: SEC. A general note: Size exclusion chromatography separates by hydrodynamic size, large species first.

B1: C-His-Rv0489 (enzyme)
chain: MANTGSLVLLRHGESDWNALNLFTGWVDVGLTDKGQAEAVRSGELIAEHDLLPDVLYTSLLRRAITTAHLALDSADRLWIPVRRSWRLNERHYGALQGLDKAETKARYGEEQFMAWRRSYDTPPPPIERGSQFSQDADPRYADIGGGPLTECLADVVARFLPYFTDVIVGDLRVGKTVLIVAHGNSLRALVKHLDQMSDDEIVGLNIPTGIPLRYDLDSAMRPLVRGGTYLDPEAAAAGAAAVAGQGRG
notes: also called C-His-Rv0489c; cofactor dependent phosphoglycerate mutase of M. tuberculosis; not shown: His6, C-terminal, kept
With B1, the “stoichiometry N” value is 2.

B2: C-His-Rv2135c (enzyme)
chain: MTVILLRHARSTSNTAGVLAGRSGVDLDEKGREQATGLIDRIGDLPIRAVASSPMLRCQRTVEPLAEALCLEPLIDDRFSEVDYGEWTGRKIGDLVDEPLWRVVQAHPSAAVFPGGEGLAQVQTRAVAAVREHDRRLADQHGHDVLWLACTHGDVIKAVIADAFGMHLDSFQRITADPGSVSVVRYTQLRPFVLHVNHTGARLAPALQAAASAQGASPEPNAAVPPGDAVIGGSTD
notes: also called C-His-Rv2315c; not shown: His6, C-terminal, kept
For the protein B2, the “stoichiometry N” value worked out at 4.
